Laboratory results: FireProtDB (doi:10.1038/75151)

Details: Bacillus caldolyticus, pH 7, Thermal, CD, Sodium cacodylate-HCl 0.1 M, reversible: yes, whole UniProt chain shown

B1: Cold shock protein CspB wild type, P41016 (protein)
chain: MQRGKVKWFNNEKGYGFIEVEGGSDVFVHFTAIQGEGFKTLEEGQEVSFEIVQGNRGPQAANVVKL
70 °C, NaCl 2 M
  unfolding free energy: 2.2 kcal/mol
  Tm: 76.9 °C
  unfolding enthalpy (van 't Hoff): 58.6 kcal/mol
